The source of these data is paper PMC11995267.

The target of this assay is T1, GST-tagged first WD40 domain of Elp1, Q06706.
T1 chain: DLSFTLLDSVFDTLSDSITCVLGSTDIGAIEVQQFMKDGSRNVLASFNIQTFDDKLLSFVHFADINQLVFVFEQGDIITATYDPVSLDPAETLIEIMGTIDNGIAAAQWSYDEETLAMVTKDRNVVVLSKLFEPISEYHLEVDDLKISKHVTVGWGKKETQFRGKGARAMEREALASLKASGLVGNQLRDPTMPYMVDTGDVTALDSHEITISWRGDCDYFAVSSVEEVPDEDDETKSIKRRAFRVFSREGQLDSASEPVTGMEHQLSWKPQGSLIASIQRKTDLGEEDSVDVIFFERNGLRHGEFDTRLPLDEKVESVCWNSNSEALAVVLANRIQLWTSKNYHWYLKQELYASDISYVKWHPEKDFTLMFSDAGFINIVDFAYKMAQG
The assay can be described thus: GST pull-down, quantified from Coomassie SDS-PAGE. As to conditions: chain shown with the change;; parent: est. 1.0; read off a plot.

B1: recombinant Kti12 (wild type), His-tagged, P34253 K225A; K228A; K235A; R281A; K283A; R284A; K291A (protein)
chain: MPLVLFTGYPCSGKTTLAKHLVQLLQSKIDATPSLSKYSITYHSDESLGIKHSDYITSQDERKLRSEIISAVKRDLSKNKIVIVDSLNYIKGFRYQLHCEVKNLSTTFCVIQTLCPPETIFEWNKTSNPNPWEPELLNQLIQRYEEPNSSNRWDSPLFAILTPQDNITDYIDDICKVVFQTSKSAKNSGHNDPLSKGLQKPNSATVLKPASQSNFIQVLDIETSAIIATIMNHIASLTSIGGVSNGTRVIVSEGITDINDDGCFFVDLPIGNVVTLAQLQALAAQFINFNALRDIDQDRIGPLFADYLNKNLN
Consider B1, for which the ratio to parent is 0.11.

B2: recombinant Kti12 (wild type), His-tagged, P34253 K225A; K228A; K235A (protein)
chain: MPLVLFTGYPCSGKTTLAKHLVQLLQSKIDATPSLSKYSITYHSDESLGIKHSDYITSQDERKLRSEIISAVKRDLSKNKIVIVDSLNYIKGFRYQLHCEVKNLSTTFCVIQTLCPPETIFEWNKTSNPNPWEPELLNQLIQRYEEPNSSNRWDSPLFAILTPQDNITDYIDDICKVVFQTSKSAKNSGHNDPLSKGLQKPNSATVLKPASQSNFIQVLDIETSAIIATIMNHIASLTSIGGVSNGTRVIVSEGITDINDDGCFFVDLPIGNVVTLAQLQRLKRQFINFNKLRDIDQDRIGPLFADYLNKNLN
For the molecule B2, the ratio to parent is 0.67.
